Experimental data reported in patent publication US20210162061A1 (DINGFU BIOTARGET, published 2021).
Each block holds one binder with its values, some of them ahead of it.

Columns and labels:
human CD47 [1] = target: T1, human CD47 (human, UniProt Q08722 19-323); experiment: flow cytometry histogram, 20 µg/ml, fresh human RBCs diluted 2500 times
T1 construct: whole, on cells; also called CD47 on A375 cells; CD47 on human erythrocytes (RBC)

CD47-muFc = target: T2, CD47-muFc (human); experiment: BLI (Octet K2), CD47-muFc immobilised on AHC biosensors, 25 C
T2 construct: also called CD47-muFc fusion protein; Group 8
T2 sequence (chain, as listed by the source limits assumed): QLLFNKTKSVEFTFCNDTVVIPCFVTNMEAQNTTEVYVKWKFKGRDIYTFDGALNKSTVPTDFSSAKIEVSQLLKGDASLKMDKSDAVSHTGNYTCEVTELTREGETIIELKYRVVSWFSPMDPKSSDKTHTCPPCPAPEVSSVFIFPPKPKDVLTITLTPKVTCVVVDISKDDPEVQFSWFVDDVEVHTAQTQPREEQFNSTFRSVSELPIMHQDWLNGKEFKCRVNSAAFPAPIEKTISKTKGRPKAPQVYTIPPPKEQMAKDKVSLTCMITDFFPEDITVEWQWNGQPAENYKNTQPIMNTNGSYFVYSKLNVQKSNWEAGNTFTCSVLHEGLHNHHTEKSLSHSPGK
Experimental: All experiments were performed at 25° C. under a PBS buffer containing 0.5% BSA and 0.5% Tween 20, pH 7.2. […] After the above steps, the subtracted binding interference data were applied to the calculations of binding constants using the FortéBio analysis software provided with the instrument.

human CD47 [2] = target: T1, human CD47; experiment: flow cytometry histogram, 20 µg/ml, anti-hIgG Fc PE; tumor cells mixed with 15-fold excess of human RBCs; RBC gate
CD47-EGFP = target: T3, CD47-EGFP (human); experiment: flow cytometry (MFI, anti-hIgG Fc PE) on cells expressing CD47-EGFP, unit taken from the axis Log10(ug/ml)
T3 construct: also called cell surface human CD47; cells expressing CD47-EGFP
Experimental: The cells were then analyzed by flow cytometry (Life Technology).

binding result (human CD47 [1]): binds
B1: hu56di-CV1 (Fc fusion)
chain 1: QVQLVESGGGLVQPGGSLRLSCAASGKMSSRRCMAWFRQAPGKERERVAKLLTTSGSTYLADSVKGRFTISRDNSKNTVYLQMNSLRAEDTAVYYCAADSFEDPTCTLVTSSGAFQYWGQGTLVTVSSGAPQVQLVESGGGLVQPGGSLRLSCAASGKMSSRRCMAWFRQAPGKERERVAKLLTTSGSTYLADSVKGRFTISRDNSKNTVYLQMNSLRAEDTAVYYCAADSFEDPTCTLVTSSGAFQYWGQGTLVTVSSEPKSSDKTHTCPPCPAPELLGGPSVFLFPPKPKDTLMISRTPEVTCVVVDVSHEDPEVKFNWYVDGVEVHNAKTKPREEQYNSTYRVVSVLTVLHQDWLNGKEYKCKVSNKALPAPIEKTISKAKGQPREPQVYTLPPCRDELTKNQVSLWCLVKGFYPSDIAVEWESNGQPENNYKTTPPVLDSDGSFFLYSALTVDKSRWQQGNVFSCSVMHEALHNHYTQKSLSLSPGK
chain 2: EEELQIIQPDKSVLVAAGETATLRCTITSLFPVGPIQWFRGAGPGRVLIYNQRQGPFPRVTTVSDTTKRNNMDFSIRIGNITPADAGTYYCIKFRKGSPDDVEFKSGAGTELSVRAKPSGGGGSDKTHTCPPCPAPELLGGPSVFLFPPKPKDTLMISRTPEVTCVVVDVSHEDPEVKFNWYVDGVEVHNAKTKPREEQYNSTYRVVSVLTVLHQDWLNGKEYKCKVSNKALPAPIEKTISKAKGQPREPQVYTLPPSRDELTKNQVSLSCGVKGFYPSDIAVEWESNGQPENNYKTTPPVLDSDGSFKLASKLTVDKSRWQQGNVFSCSVMHEALHNHYTQKSLSLSPGK
notes: also called Group 14

Kd (CD47-muFc): 0.198 nM
koff (CD47-muFc): 0.000129 s⁻¹
kon (CD47-muFc): 651000 M⁻¹ s⁻¹
binding result (human CD47 [2]): binds
EC50 (CD47-EGFP): 0.981 µg/mL
B2: AB6.12 IgG1 (antibody, V domains shown)
VH: QMQLVQSGAEVKKTGSSVKVSCKASGFNIKDYYLHWVRQAPGQALEWMGWIDPDQGDTEYAQKFQDRVTITRDRSMSTAYMELSSLRSEDTAMYYCNAAYGSSSYPMDYWGQGTTVTVSS
VL: NIQMTQSPSAMSASVGDRVTITCKASQDIHRYLSWFQQKPGKVPKHLIYRANRLVSGVPSRFSGSGSGTEFTLTISSLQPEDFATYYCLQYDEFPYTFGGGTKVEIKR
notes: also called anti-CD47 monoclonal antibody AB6.12 IgG1; Group 20
